Laboratory results published in patent US7838495B2, “Compositions and methods of use of EPB1, and ErbB3 binding protein” (University of Maryland, Baltimore, priority 2007, dated 2010).

Test system: Androgen Regulated Genes
Experiment: Microarray analysis of EBP1 and vector transfected C81 cells
Assay type: cell-based, human
Conditions: EBP1 transfected C81 cells vs vector control
Method: Microarray Analysis and Bioinformatics. RNA was prepared using the Trizol Reagent as previously described (8). Microarray processing and data analysis was performed at Genome Explorations (Nashville, Tenn.). U133A oligonucleotide arrays (Affymetrix) containing ˜33,000 full length annotated genes together with additional probe sets designed to represent EST sequences were used for the analysis. Only genes with a minimum expression level of 500 were included in this analysis. […] Oncomine analyses were performed by using Oncomine 3.0 (www.oncomine.org). Real Time Quantitative Reverse-Transcription PCR. Both cell culture samples and a commercial panel of cDNAs from normal prostate and prostate tumors (TissueScan, Origene, Rockville, Md.) were examined. The method of Nakanishi et al. (15) was used as previously described. Real-time quantitative RT-PCR was performed on the LightCycler® (Roche) platform. The following forward and reverse primers were selected using Primer Express software and synthesized by the Core Laboratory of University of Maryland School of Medicine: Ebp1, sense: 5′-GCA CGC CAA TAG AAG G-3′ (SEQ ID NO: 16) and antisense: 5′-GTA AAC GGC ATG GCA TC-3′ (SEQ ID NO: 17) kallikrein-2 sense: 5′-CAT CCA GTC TCG GAT TG-3′ (SEQ ID NO: 18) and antisense: 5′-CTC ATA TTG TAG AGC GGG T-3′ (SEQ ID NO: 19), TSPY, sense: 5′-CAGGGCTTCTCATTCCACTC-3′ (SEQ ID NO: 20) and antisense: 5′-CCATCATATTCAACTCAACAA CTGG-3′ (16; SEQ ID NO: 21), AGR2, sense: 5′-ATTGGCAGAGCAGTTTCTCC-3′ (SEQ ID NO: 22) and antisense, 5′-GAGCTGTATCTGCAGGTTCGT (17; SEQ ID NO: 23) 13-Actin, sense: 5′-GCTATCCAGGCTGTGCTATC-3′ (SEQ ID NO: 24) and antisense 5′-TGT CAC GCA CGA TTT CC-3′ (SEQ ID NO: 25). A SYBR®Green PCR Kit was used as per the manufacturer's instructions (Applied Biosystems, Foster City, Calif.) and the analyses were performed in duplicate or triplicate.

B1: EBP1: ErbB3 binding protein (SEQ ID NO: 2), AR corepressor, here ectopically expressed in cancer cells by stable transfection of an expression plasmid (protein, listed as Homo sapiens)
chain: MSGEDEQQEQTIAEDLVVTKYKMGGDIANRVLRSLVEASSSGVSVLSLCEKGDAMIMEETGKIFKKEKEMKKGIAFPTSISVNNCVCHFSPLKSDQDYILKEGDLVKIDLGVHVDGFIANVAHTFVVDVAQGTQVTGRKADVIKAAHLCAEAALRLVKPGNQNTQVTEAWNKVAHSFNCTPIEGMLSHQLKQHVIDGEKTIIQNPTDQQKKDHEKAEFEVHEVYAVDVLVSSGEGKAKDAGQRTTIYKRDPSKQYGLKMKTSRAFFSEVERRFDAMPFTLRAFEDEKKARMGVVECAKHELLQPFNVLYEKEGEFVAQFKFTVLLMPNGPMRITSGPFEPDLYKSEMEVQDAELKALLQSSASRKTQKKKKKKASKTAENATSGETLEENEAGD
modifications: FLAG tag
- Fold Decrease, AGR2: 7.1
- Fold Decrease, Androgen regulated serine protease TMPRSS2: 4.0
- Fold Decrease, Prostate Cancer overexpressed POV: 5
- Fold Decrease, Prostate Differentiation Factor mRNA: 5.4
- Fold Decrease, Prostate Specific Antigen: 5.5
- Fold Decrease, Prostatic Kallikrein 2: 5.4
- Fold Decrease, TSPY: 9.5
